Measured values taken from publication PMC2825244.

Molecular target: Chemokine receptor four (CXCR4) (human (endogenous in JJ)) (UniProt P61073)
UniProt P61073, sequence (P61073 whole entry): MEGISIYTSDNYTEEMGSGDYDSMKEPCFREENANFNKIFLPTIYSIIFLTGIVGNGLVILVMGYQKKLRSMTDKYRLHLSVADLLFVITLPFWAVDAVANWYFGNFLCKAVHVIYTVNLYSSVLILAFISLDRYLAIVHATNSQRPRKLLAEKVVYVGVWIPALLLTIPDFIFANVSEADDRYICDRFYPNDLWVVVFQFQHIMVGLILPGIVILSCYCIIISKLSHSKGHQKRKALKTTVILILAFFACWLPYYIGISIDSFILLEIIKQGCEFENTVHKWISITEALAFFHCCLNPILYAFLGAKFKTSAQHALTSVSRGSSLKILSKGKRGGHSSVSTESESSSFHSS

MMP1 mRNA (qRT-PCR, fold) in JJ cells in hypoxia with SDF1 10 ng/ml, against 9 fold by hypoxia alone; the SDF1 mediated increase was blocked by the CXCR4 inhibitor AMD3100 0.1 μM: 23 fold
Substance: human recombinant SDF-1 (stromal cell derived factor one) (from UniProt P48061 22-93) (ligand)
